Test results from patent US6884600B1, “Protein phosphatase-1 catalytic subunit interactions” (Medical Research Council London, priority 1996, dated 2005).

Assays:
[1] = target: PP1c (γ1-isoform) (Homo sapiens, UniProt P36873); assay: Far Western: GST-GM fusion proteins probed with digoxygenin-labelled PP1γ; assay type: binding; details: GST-fusion proteins on blot probed with digoxygenin-labelled PP1γ
Source text: GST-GM fusion proteins were electrophoresed on 10% SDS/polyacrylamide gels and stained with Coomassie blue (lanes 1-3) or, after transfer to nitrocellulose, probed with digoxygenin-labelled PP1γ (lanes 4-6) as in [9]. Lanes 1 and 4, GST-GM-(E2-D118); Lanes 2 and 5, GST-GM-(H100-P350); Lanes 3 and 6, GST. The positions of the marker proteins glycogen phosphorylase (97 kDa), bovine serum albumin (66 kDa), ovalbumin (43 kDa), carbonic anhydrase (29 kDa) and soybean trypsin inhibitor (20 kDa) are indicated.
The myosin-associated form of PP1 (PP1M) was from chicken gizzard and the glycogen-associated form of PP1 (PP1G) from rabbit skeletal muscle. The β isoform of PP1c was released from PP1G by incubation for 2 hours in 2M LiBr, then purified by gel-filtration on a 30×1 cm column of Superose 12 (Pharmacia, Milton Keynes, U.K.) in the presence of 0.5M LiBr. Glycogen protein particles from rat liver were used as the source of hepatic PP1G Digoxygenin-labelled PP1c (γ1-isoform, hereafter termed PP1) was prepared as in [9]. GL was expressed in E. coli as a glutathione-S-transferase (GST) fusion protein [7], termed GST-GL. The catalytic subunit of PP2A from bovine heart (PP2AC) was provided by Dr R. MacKintosh in this Unit. The phosphorylatable myosin light chain (MLC20) and heavy meromyosin from chicken gizzard were a gift from Dr M. Ikebe (Case Western Reserve University, Cleveland, USA). Thrombin and benzamidine-Agarose were purchased from Sigma (Poole, UK).
The amino acid sequence of rat hepatic GL is 23% identical (39% similar) to residues 1-286 of GM from human skeletal muscle. […] Fusion proteins in which GST was linked to fragments of GM were therefore tested for their ability to bind to PP1c. […] We therefore synthesised GM-(G63-T93) and examined its effect on the enzymatic properties of PP1GL, the form of PP1 associated with rat hepatic protein-glycogen particles.

[2] = test system: M21 subunit; assay: Far Western blotting: interaction with the M21 subunit; assay type: binding, chicken; details: probe 0.2 μg/ml
M21 subunit, sequence (as listed by the source): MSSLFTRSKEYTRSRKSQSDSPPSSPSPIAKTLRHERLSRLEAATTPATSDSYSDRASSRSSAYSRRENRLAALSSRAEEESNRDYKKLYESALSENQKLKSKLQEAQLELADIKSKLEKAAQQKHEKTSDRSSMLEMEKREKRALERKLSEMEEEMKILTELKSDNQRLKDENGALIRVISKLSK
Experimental: A) PP1M 5 μg (track 1), 10 μg bacterial extract containing M110-(R714-I1004) (track 2), MBP-M110-(R714-I004) 1 μg (track 3), MBP-M110-(R714-L934) 1 μg (track 4), MBP-M110-(K933-I1004) 1 μg (track 5), MBP 1 μg (track 6), M110-(M1-E309) 2 μg (lane 7) and M110-(M1-S477) 2 μg (track 8) were run on a 12% SDS/polyacrylamide gel and stained with Coomassie Blue. B) same as A) except that 10-fold less protein was electrophoresed and after transfer to nitrocellulose the proteins were probed with digoxigenin-labelled M21 subunit (0.2 μg/ml). C) same as B) except that, after electrophoresis, the proteins were transferred to nitrocellulose and probed with digoxigenin-labelled M21-(M1-L146) (0.2 μg/ml).
A) GST-M21 5 μg (track 1), M21 5 μg (track 2), M21-(M1-L146) 5 μg (track 3), M21-(M1-E110) 20 μg (track 4) and M21-(E110-K186) 5 μg (track 5) were run on 16.5% polyacrylamide gels and stained with Coomassie Blue. The marker proteins ovalbumin (43 kDa) and carbonic anhydrase (29 kDa) are indicated. B) GST-M21 0.5 μg (track 1), M21 0.5 μg (track 2), M21-M1-L146) 0.5 μg (track 3), M21-(M1-E110) 5 μg (track 4) and M21-(E110-K186) 5 μg (track 5) were electrophoresed as in A) and after transfer to nitrocellulose the blots were probed with digoxigenin-labelled MBP-M110-(K933-I1004) (0.2 μg/Ml). C) same as B) except that, after electrophoresis, the proteins were transferred to nitrocellulose and probed with digoxigenin-labelled M21 subunit (0.2 μg/ml).
PP1M (0.5 μAg) was electrophoresed on a 12% SDS/polyacrylamide gel, transferred to nitrocellulose and probed with digoxigenin-labelled M21 subunit (0.2 μg/ml) (track 1) or digoxigenin-labelled M21-(M1-L146) (0.2 μg/ml) (track 2). The positions of the M110 subunit, the M21 subunit and PP1c are marked.
Proteins were labelled with digoxigenin and Far Western analyses carried out as described, except that the digoxigenin-labelled probe was used at a concentration of 0.2 μg/ml instead of 2 μg/ml. SDS/polyacrylamide gel electrophoresis was carried out on 7.5-15% gels according to Laemmli and on 16.5% gels according to Schagger and von Jagow. Protein was estimated according to Bradford.

[3] = target: T1, myosin (Gallus gallus, UniProt P10587); assay: Myosin binding assay (pelleting with myosin); design: species or system chicken; details: myosin 1 μM, 15 min 0° C.
T1 construct: from tissue; host or cells: chicken gizzard
T1 sequence (P10587 whole entry): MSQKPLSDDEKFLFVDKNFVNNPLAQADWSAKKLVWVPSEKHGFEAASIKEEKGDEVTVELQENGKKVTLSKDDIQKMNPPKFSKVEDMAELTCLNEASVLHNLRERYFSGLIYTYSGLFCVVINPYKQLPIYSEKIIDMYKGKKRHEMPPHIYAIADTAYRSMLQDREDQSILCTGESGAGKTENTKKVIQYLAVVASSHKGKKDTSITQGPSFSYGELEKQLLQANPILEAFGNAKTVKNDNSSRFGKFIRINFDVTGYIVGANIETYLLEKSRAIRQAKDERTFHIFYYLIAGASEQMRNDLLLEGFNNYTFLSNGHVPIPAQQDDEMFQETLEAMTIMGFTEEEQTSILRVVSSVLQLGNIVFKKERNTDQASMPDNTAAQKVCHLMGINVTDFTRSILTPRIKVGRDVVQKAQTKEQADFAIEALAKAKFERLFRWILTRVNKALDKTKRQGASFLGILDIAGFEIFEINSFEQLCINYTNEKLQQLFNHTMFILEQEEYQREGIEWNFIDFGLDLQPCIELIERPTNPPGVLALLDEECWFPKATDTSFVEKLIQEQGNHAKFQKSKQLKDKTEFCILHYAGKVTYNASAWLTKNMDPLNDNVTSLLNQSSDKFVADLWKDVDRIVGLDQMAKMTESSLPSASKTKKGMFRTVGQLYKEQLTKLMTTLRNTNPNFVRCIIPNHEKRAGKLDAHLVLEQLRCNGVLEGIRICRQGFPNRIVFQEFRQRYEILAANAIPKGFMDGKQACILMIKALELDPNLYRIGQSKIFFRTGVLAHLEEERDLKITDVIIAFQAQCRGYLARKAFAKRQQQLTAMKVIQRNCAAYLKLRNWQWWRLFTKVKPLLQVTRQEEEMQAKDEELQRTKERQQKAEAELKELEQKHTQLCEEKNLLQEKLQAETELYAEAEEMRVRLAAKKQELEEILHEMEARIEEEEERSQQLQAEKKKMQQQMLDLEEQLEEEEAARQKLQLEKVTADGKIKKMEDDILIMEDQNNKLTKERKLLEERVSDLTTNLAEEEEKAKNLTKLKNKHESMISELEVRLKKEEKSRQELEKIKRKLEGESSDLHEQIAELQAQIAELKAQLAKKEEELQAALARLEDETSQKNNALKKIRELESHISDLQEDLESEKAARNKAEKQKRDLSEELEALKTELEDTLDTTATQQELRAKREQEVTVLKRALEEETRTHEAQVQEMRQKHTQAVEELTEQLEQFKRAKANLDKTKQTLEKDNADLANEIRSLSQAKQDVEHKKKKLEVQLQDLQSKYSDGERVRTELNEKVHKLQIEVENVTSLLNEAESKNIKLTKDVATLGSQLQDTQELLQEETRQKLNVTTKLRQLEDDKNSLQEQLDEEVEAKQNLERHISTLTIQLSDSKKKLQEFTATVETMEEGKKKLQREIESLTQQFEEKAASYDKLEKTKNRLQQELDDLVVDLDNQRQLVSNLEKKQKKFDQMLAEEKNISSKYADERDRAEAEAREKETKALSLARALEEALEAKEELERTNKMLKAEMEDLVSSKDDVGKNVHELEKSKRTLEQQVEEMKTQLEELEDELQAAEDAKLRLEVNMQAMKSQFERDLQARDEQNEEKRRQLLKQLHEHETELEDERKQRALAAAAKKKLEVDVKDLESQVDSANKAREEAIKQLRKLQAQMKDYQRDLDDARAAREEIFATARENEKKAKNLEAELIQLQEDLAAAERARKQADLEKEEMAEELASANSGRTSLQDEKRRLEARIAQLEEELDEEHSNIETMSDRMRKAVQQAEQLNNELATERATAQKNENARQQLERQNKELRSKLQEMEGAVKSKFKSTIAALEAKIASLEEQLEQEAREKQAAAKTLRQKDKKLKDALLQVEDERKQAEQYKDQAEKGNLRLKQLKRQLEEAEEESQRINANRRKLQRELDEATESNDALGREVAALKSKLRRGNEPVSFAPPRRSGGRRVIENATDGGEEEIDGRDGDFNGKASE
T1 sequence (P02612 whole entry partner): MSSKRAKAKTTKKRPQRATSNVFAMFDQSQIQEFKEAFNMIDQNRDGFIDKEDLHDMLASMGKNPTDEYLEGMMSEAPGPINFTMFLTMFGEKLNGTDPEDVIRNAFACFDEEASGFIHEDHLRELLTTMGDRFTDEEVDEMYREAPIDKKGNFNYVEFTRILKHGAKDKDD
T1 sequence (P02607 whole entry partner): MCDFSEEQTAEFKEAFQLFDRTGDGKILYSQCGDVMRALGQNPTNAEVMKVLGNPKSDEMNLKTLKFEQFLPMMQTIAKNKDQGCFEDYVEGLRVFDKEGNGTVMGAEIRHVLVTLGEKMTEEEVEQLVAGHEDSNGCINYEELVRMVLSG
Experimental: The PP1 catalytic subunit (PP1c), PP1M, or PP1M lacking the M21 subunit, PP1M(ΔM21), each at 30 nM, were incubated for 15 min at 0° C. with 1 μM myosin and centrifuged (see Methods of Example 3). […] The results shown are the average (±S.E.M.) for three separate experiments each assayed in duplicate.
(A); PP1M, M110-(M1-S477) and GST-M110-(M377-K976), each at 30 nM were incubated for 15 min at 0° C. with 1 μM myosin and centrifuged. The supernatants (S), resuspended pellets (P) and the suspension before centrifugation (T, total) were electrophoresed on 12% SDS/polyacrylamide gels, transferred to nitrocellulose and immunoblotted with antibodies raised against the PP1M holoenzyme. No protein was pelleted in the absence of myosin (not shown). The positions of the marker proteins myosin heavy chain (200 kDa), glycogen phosphorylase (97 kDa), bovine serum albumin (66 kDa), ovalbumin (43 kDa), carbonic anhydrase (29 kDa) and soybean trypsin inhibitor (20 kDa) are indicated. (B) The experiments were carried out as in (A), except that the M110 fragments and M21 subunit were used at 100 nM, the 8.5 kDa M110-(K933-I1004) fragment was electrophoresed on a 16.5% polyacrylamide gel and immunoblotting was carried out with affinity purified antibodies (see Methods). A small amount of M110-(R714-I1004) pelleted in the absence of myosin. […] No other protein was pelleted in the absence of myosin.
(A); Myosin (1 μM) was mixed with 50 μM, 20 μM or 10 μM M21 subunit to give the molar ratios M21:myosin dimer indicated. After 15 min at 0° C., the solutions were centrifuged and the supernatants (S), resuspended pellets (P) and the suspension before centrifugation (T, total) were electrophoresed on 12% SDS/polyacrylamide gels and stained with Coomassie blue. The positions of the myosin heavy chain (MHC) and the M21 subunit are indicated. The myosin light chains migrate faster than the M21 subunit and are not visible at these loadings.
Myosin binding assays. Myosin (0.5 mg/ml, 1 μM in terms of myosin heavy chains) in 10 mM Hepes pH 7.5, 50 mM KCl, 5 mM MgCl2, 0.1% (by vol) 2-mercaptoethanol, was mixed with PP1M, M21 subunit, or fragments of the M110 and M21 subunits, at the concentrations indicated in figure legends. After incubation for 15 min at 0° C., the solutions were centrifuged for 2 min at 13,000×g, the supernatants removed, and the pellets washed twice in 10 mM Hepes pH 7.5, 50 mM KCl, 5 mM MgCl2, 0.1% (by vol) 2-mercaptoethanol before resuspension in 50 mM Tris-HCl pH 7.5, 0.1 mM EGTA, 0.03% (by mass) Brij 35, 0.6 M NaCl, 0.1% (by vol) 2-mercaptoethanol. Aliquots of the supernatant, the resuspended pellet and the suspension before centrifugation were either assayed for myosin P-light chain phosphatase activity or denatured in SDS and analysed by SDS/polyacrylamide gel electrophoresis.

[4] = test system: MLC20 and glycogen phosphorylase; assay: MLC20 phosphatase:phosphorylase phosphatase activity ratio of PP1 preparations; assay type: biochemical
Experimental: The M110 and M21 subunits are marked. The activity ratio, MLC20 phosphatase (MP):phosphorylase phosphatase (PhP) of the two preparations is also shown. Similar results were obtained in three different experiments. The activity ratio MP:PhP of PP1c is 0.07.
^32P-labelled rabbit skeletal muscle phosphorylase a (containing 1.0 mol phosphate per mol subunit) was prepared by phosphorylation with phosphorylase kinase, ^32P-labelled rabbit skeletal muscle glycogen synthase (containing 1.5 mol/mol subunit in the sites 3 region) was prepared by phosphorylation with glycogen synthase kinase-3 [24]). ^32P-labelled chicken gizzard MLC20 and ^32P-labelled chicken gizzard heavy meromyosin (containing 1.0 mol phosphate per mol subunit) were prepared by phosphorylation with smooth muscle myosin light chain kinase. The dephosphorylation of phosphorylase a (10 μM), glycogen synthase (1 μM) and MLC20 (1 μM) and heavy meromyosin (1 μM) was carried out as in [24]. One unit of activity (U) was that amount which released […] of phosphate in one minute.
PP1M (0.01 ml, 0.4U/ml) was dissociated by incubation for 30 minutes with 500 μM arachidonic acid and then for 30 minutes with 0.08 ml of packed Protein G-Sepharose coupled to 0.08 mg of affinity purified anti-M21 antibody. The Protein G-Sepharose was pelleted, and the supernatant diluted at least 15-fold to allow the M110 subunit and PP1c to recombine. […]

PP1c (γ1-isoform), sequence (P36873 whole entry, the tested form may be a part, canonical isoform): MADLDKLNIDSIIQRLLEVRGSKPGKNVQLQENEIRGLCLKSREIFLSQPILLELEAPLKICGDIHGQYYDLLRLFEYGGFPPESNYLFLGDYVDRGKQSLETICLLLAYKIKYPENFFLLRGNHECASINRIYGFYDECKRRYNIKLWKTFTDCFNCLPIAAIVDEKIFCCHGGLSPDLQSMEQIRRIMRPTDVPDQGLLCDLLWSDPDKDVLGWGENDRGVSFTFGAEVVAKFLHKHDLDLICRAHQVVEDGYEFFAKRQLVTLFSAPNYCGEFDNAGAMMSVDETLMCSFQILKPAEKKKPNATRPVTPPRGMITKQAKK

| Molecule | interaction with PP1 in Far Western experiments [1] | recognised by digoxigenin-labelled M21 subunit in Far Western blotting [2] | binding to myosin [3] | MLC20 phosphatase:phosphorylase phosphatase activity ratio [4] |
| --- | --- | --- | --- | --- |
| GST-GM-(H100-P350): GST fusion of amino acids 100-350 of human GM (protein, left off: a dimerising Fc or GST, GST fusion of amino acids 100-350 of human GM) HTEEYVLAPLFDLPSSKEDLMQQLQIQKAILESTESLLGSTSIKGIIRVLNVSFEKLVYVRMSLDDWQTHYDILAEYVPNSCDGETDQFSFKIVLVPPYQKDGSKVEFCIRYETSVGTFWSNNNGTNYTFICQKKEQEPEPVKPWKEVPNRQIKGCLKVKSSKEESSVTSEENNFENPKNTDTYIPTIICSHEDKEDLEASNRNVKDVNREHDEHNEKELELMINQHLIRTRSTASRDERNTFSTDPVNFP | not |  |  |  |
| PP1c: catalytic subunit of PP1 (protein) ADGELNVDSLITRLLEVRGCRPGKIVQMTEAEVRGLCIKSREIFLSQPILLELEAPLKICGDIHGQYTDLLRLFEYGGFPPEANYLFLGDYVDRGKQSLETICLLLAYKIKYPENFFLLRGNHECASINRIYGFYDECKRRFNIKLWKTFTDCFNCLPIAAIVDEKIFCCHGGLSPDLQSMEQIRRIMRPTDVPDTGLLCDLLWSDPDKDVQGWGENDRGVSFTFGADVVSKFLNRHDLDLICRAHQVVEDGYEFFAKRQLVTLFSAPNYCGEFDNAGGMMSVDETLMCSFQILKPSEKKAKYQYGGLNSGRPVTPPRTANPPKKR |  | not | neither PP1c (FIG. 22) nor bovine serum albumin (data not shown) bound to myosin | 0.07 |
